Measurements as given in publication PMC6317593, “Determining the amphipol distribution within membrane-protein fibre samples using small-angle neutron scattering” (Acta Crystallographica. Section D, Structural Biology, 2018).

Molecular target: the molecule itself
Experiment: SEC; Superose 12 column, 20 mM sodium phosphate pH 7.9, 100 mM NaCl, 0.5 ml/min; OmpF in amphipol A8-35 at 1:10 (w:w), detergent-free buffer; oligomer: trimer

B1: Outer membrane protein F (OmpF) (natural protein, E. coli, UniProt P02931 23-362, looked up)
chain: AEIYNKDGNKVDLYGKAVGLHYFSKGNGENSYGGNGDMTYARLGFKGETQINSDLTGYGQWEYNFQGNNSEGADAQTGNKTRLAFAGLKYADVGSFDYGRNYGVVYDALGYTDMLPEFGGDTAYSDDFFVGRVGGVATYRNSNFFGLVDGLNFAVQYLGKNERDTARRSNGDGVGGSISYEYEGFGIVGAYGAADRTNLQEAQPLGNGKKAEQWATGLKYDANNIYLAANYGETRNATPITNKFTNTSGFANKTQDVLLVAQYQFDFGLRPSIAYTKSKAKDVEGIGDVDLVNYFEVGATYYFNKNMSTYVDYIINQIDSDNKLGVGSDDTVAVGIVYQF
modifications: deuterated (cells grown in 85% D2O minimal medium)
notes: Outer membrane protein F (OmpF), the major porin of the E. coli outer membrane, produced from E. coli BE3000 cells; trimeric, each monomer a 16-stranded beta-barrel; Native protein purified from the outer membrane of strain BE3000; Held in amphipol A8-35 (not a protein) in all experiments; also called dOmpF; deuterated OmpF; source: E. coli BE3000 cells grown in 85% D2O minimal medium, purified …
B1 was tested. Which “stoichiometry N” value did it give?
Its value is 3.
